In one series the target is GST (UniProt P08515 P08515:1-218). The experiment in a line: EMSA; GST alone control. The settings on record: tags: GST alone control; label: 32P. The protocol: (§1) A GST-MYB46 fusion protein was first incubated with the wild type, double-stranded ³²P-labeled oligodeoxynucleotides with the wild type CESA4, CESA7 and CESA8 promoter sequences shown in FIG. 3A. The GST protein was used as control protein. Unlabeled competitor promoter oligonucleotides were then added the assays to generate the assay mixtures identified FIG. 3B, where the competitors were oligonucleotides with wild type and mutated CESA4, CESA7 and CESA8 promoter sequences shown in FIG. 3A. […] To generate the results shown FIG. 3B, each assay mixture was then subjected to an electrophoretic mobility shift assay (EMSA) by polyacrylamide gel electrophoresis (PAGE). […] The promoter regions used for the DNA probes in each experiment are indicated below the gel images. Competition for the protein-DNA binding was performed using 60× unlabeled probes. The free unbound DNA probes are indicated by the arrow.
Chain of GST (P08515 whole entry, the tested form may be a part, one chain of several): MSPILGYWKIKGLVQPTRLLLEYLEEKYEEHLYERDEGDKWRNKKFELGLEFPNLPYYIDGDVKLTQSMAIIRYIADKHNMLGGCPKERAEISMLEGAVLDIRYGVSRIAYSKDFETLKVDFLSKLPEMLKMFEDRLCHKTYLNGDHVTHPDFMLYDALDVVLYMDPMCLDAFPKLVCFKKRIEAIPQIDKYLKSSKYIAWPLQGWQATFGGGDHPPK
(§2) DNA fragments for EMSA were obtained by PCR-amplification and labeled with [γ-³²P]ATP using T4 polynucleotide kinase (NEB). The end-labeled probes were purified with Microspin S-200 HR column (GE Healthcare). The labeled DNA fragments were incubated for 25 min with 50 ng of GST-MYB46 in a binding buffer [10 mM. Tris (pH 7.5), 50 mM KCl, 1 mM DTT, 2.5% glycerol, 5 mM MgCl₂, 100 μg/ml BSA, and 50 ng/μL poly(dI-dC)].
For orientation: Mobility shift assays separate free from complexed probe on a gel.

The target of series [1] is T1, GST-MYB46 (Arabidopsis thaliana, UniProt Q9LXV2 SEQ:1-280). The experiment in a line: EMSA; labelled fragment stated as -248 to -69 in text; 5 mM MgCl2, 50 mM KCl, pH 7.5. The settings on record: tags: GST fusion, E. coli Rosetta gami; label: 32P. The protocol:
as §1, §2

The target of series [2] is T1, GST-MYB46. The experiment in a line: EMSA; labelled fragment stated as -662 to -486 in text. The settings on record: tags: GST fusion, E. coli Rosetta gami; label: 32P. As to the method: as §1, §2
Series [3] addresses T1, GST-MYB46. The experiment in a line: EMSA; labelled fragment stated as -525 to -358 in text. The settings on record: tags: GST fusion, E. coli Rosetta gami; label: 32P. The protocol: as §1, §2

These results are taken from US20170298375, “CONTROL OF CELLULOSE BIOSYNTHESIS BY OVEREXPRESSION OF A TRANSCRIPTION FACTOR” (Board of Trustees of Michigan State University, published 2017).

T1 sequence (Q9LXV2 whole entry, the tested form may be a part): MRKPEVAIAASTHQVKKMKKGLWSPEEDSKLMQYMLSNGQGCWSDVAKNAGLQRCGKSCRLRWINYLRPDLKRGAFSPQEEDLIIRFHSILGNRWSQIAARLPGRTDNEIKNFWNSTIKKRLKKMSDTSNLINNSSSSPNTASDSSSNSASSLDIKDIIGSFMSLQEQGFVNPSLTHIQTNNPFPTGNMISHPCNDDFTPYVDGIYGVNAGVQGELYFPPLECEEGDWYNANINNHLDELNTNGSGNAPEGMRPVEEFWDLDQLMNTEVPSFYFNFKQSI

B1: ProCesA4wt (dsDNA)
DNA 1: TCACTCACAGTTTGGTACAACCTCA
DNA 2: TGAGGTTGTACCAAACTGTGAGTGA
Regarding B1, the binding result is “no binding” with GST and “binds” with GST-MYB46 [1].

B2: ProCesA7wt (dsDNA)
DNA 1: CAGAAAATTCACCTAATTAAGGACA
DNA 2: TGTCCTTAATTAGGTGAATTTTCTG
On to B2, for which the binding result is given as “no binding” with GST and “binds” with GST-MYB46 [2].

B3: ProCesA8wt (dsDNA)
DNA 1: CTTATAGAAAGTTGGTGATTGAAAA
DNA 2: TTTTCAATCACCAACTTTCTATAAG
With B3, the binding result was “no binding” with GST and “binds” in the series with GST-MYB46 [3].
